Experimental data as given in patent US6998123B1, “Osteoporosis treatment with anti-IL-11 antibody” (priority 1998, dated 2006).
Entries after “also recorded” stand apart in the source; their conditions may differ. Ends that are not written are not given here.

T1: IL-11 (Homo sapiens, UniProt P20809)
T1 sequence (P20809 22-199): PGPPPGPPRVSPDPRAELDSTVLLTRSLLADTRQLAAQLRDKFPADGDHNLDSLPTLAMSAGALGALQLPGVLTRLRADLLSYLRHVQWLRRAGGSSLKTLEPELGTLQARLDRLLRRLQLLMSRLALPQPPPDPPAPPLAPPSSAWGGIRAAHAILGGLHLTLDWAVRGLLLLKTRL


Columns and labels:
[1] = biological target: Interleukin-11 (IL-11); assay: cell-based or functional assay
[2] = system: IL-11 and IL-11R; assay: productive interaction of IL-11 and IL-11R; design: species or system human; details: no test named at this place
[3] = system: cocultures of murine bone marrow and calvaria cells; assay: TRAP assay: osteoclast formation in cocultures; assay type: cell-based; details: for inhibition of IL-11 induced osteoclast formation (TRAP+ multinucleated cells): 20 ng/ml IL-11, 10, 100 or 1000 ng/ml test substance, 9 days, FIGS. 7A, 7B, 8
Source text: Particular IL-11 antagonists useful in the treatment of IL-11 related bone density disorders may be identified using the TRAP assay and the bone nodule formation assay, discussed herein. The TRAP assay is known in the art and involves co-culturing murine calvaria (osteoblasts) and bone marrow cells in vitro and then quantifying osteoclast formation by counting the number of tartrate-resistant acid phosphatase positive (TRAP+) multinucleated cells. […] These potential IL-11 antagonists may be screened to determine if they are IL-11 antagonists by examining their activity in the TRAP assay and the bone nodule formation assay.
Post menopausal osteoporosis is characterized by a general reduction in bone mass, resulting from an imbalance between osteoblast-mediated bone formation and bone resorption by the osteoclast. While the osteoblast is responsible for the formation of new bone or osteoid, it also appears to control the activation and/or number of osteoclasts by releasing cytokines such as IL-6 or IL-11. This process can be examined using a “TRAP assay” which involves co-culturing murine calvaria (osteoblasts) and bone marrow cells in vitro and then quantifying osteoclast formation by counting the number of tartrate-resistant acid phosphatase positive (TRAP+) multinucleated cells. Ovariectomized (OVX) rats or mice provide a satisfactory animal model for postmenopausal women in studies of osteoporosis.
The effect of IL-11 on osteoclast development in cocultures of murine bone marrow and calvaria cells was examined using standard techniques. Briefly, bone marrow cultures were established by removing femurs from mice, dissecting away soft tissue, and removing the distal and proximal ends of the femur. The marrow was then flushed with 5 ml α MEM and 1.0% penicillin-streptomycin using a 25 gauge needle. The bone marrow cells were then suspended to a concentration of 5 000 000 cells per ml in α MEM containing 15% fetal calf serum (charcoal treated) to remove cells adherent to plastic. The non-adherent cells were then co-cultured for an additional 9 days with murine calvaria cells prior to being fixed and stained for TRAPase activity (stains were obtained from Sigma Chemical Co., St. Louis, Mo.). TRAP+ MNC's have the ability to form resorption pits in smooth cortical bone slices and are therefore considered to be of osteoclast origin.
The effect of IL-11 on osteoclast development in cocultures of murine bone marrow and calvaria cells was examined by maintaining these cultures in the presence of various specific concentrations of IL-11 for 9 days. After 9 days of culture, the cells were stained for TRAPase activity and the number of multinucleated TRAP+ cells were determined. The results of this experiment are depicted in Table I. Data are expressed as mean +/− SEM. […]

[4] = system: murine calvaria cell culture; assay: bone nodule formation assay with IL-11 antagonists in the presence of exogenous IL-11; assay type: cell-based; details: 20 ng/ml exogenous IL-11; for reduction of the inhibitory effect of IL-11 on bone nodule formation: very low levels/concentrations of test substance, 21 days, FIGS. 9, 10
Experimental: Bone nodule formation was measured using standard techniques. Briefly, calvaria cell cultures were established as follows: Calvaria cells were obtained from 2 day old fetal mouse calavariae by collagenase digestion. The cells were then cultured for 21 days in the presence of 0.5 mM ascorbic acid and 10 mM β-glycerophosphate. Where indicated in the experimental descriptions below, IL-11 and the mutant IL-11 receptor of experiment 4 were added to the culture at day 0 and every 3–4 days thereafter until the removal of the medium for analysis. Bone nodule formation was quantified by counting alizarin red stain nodules under a light microscope.
The effect of a gp130 binding region mutant soluble IL-11 receptor of type described in Experiment 4 and produced by the process of Experiment 3 on bone nodule formation in the presence of 20 ng/ml of exogenous IL-11 was assessed, and the results are depicted in FIG. 9. […] Thus, IL-11 antagonists such as mutant IL-11Rs can enhance bone nodule formation.
It was desired to determine if bone nodule formation could be modulated in a manner similar to that reported in Example 6 using an IL-11 antagonist peptide such as the one used in Example 5. To achieve this, the procedure of Example 6 was repeated, with the substitution of peptide 1 for the solubilized mutant IL-11 receptor. The results of this experiment are depicted in FIG. 10.

[5] = biological target: T1, IL-11; details: Karow et al., Biochem J. (1996); cited from earlier work
[6] = system: murine calvaria cells (primary osteoblasts); assay: bone nodule formation assay: effect of IL-11 alone; assay type: cell-based; details: various concentrations of IL-11; 250 μM ascorbic acid, 10 mM β-glycerol phosphate; FIG. 5
Experimental: The effect of IL-11 on bone formation was examined using the bone nodule formation assay. Murine calvaria cells (primary osteoblasts) were cultured in the presence of 250 μM ascorbic acid and 10 mM β-glycerol phosphate, and in the presence of various amounts of interleukin-11. After culturing, the culture media were plated out and the number of bone nodules per plate was counted.
The results are shown on the accompanying FIG. 5, where number of bone nodules per plate is plotted as the vertical axis, with the different concentrations of interleukin on the horizontal axis, not to scale. Each bar represents the result on experiments containing a different concentration of interleukin-11, as noted on FIG. 5.

[7] = system: gp130; details: Karow et al., Biochem J. (1996); cited from earlier work

Row | Molecule | inhibition of the productive interaction of IL-11 and IL-11R [2] | inhibition of IL-11 induced osteoclast formation (TRAP+ multinucleated cells) [3] | reduction of the inhibitory effect of IL-11 on bone nodule formation [4] | further results
1 | H289→Y289 mutant solubilized IL-11 receptor (from UniProt Q14626 24-370) |  |  |  | concentration of mutant receptor allowing enhanced bone nodule formation relative to no exogenous IL-11 [1]: 10 ng/mL
2 | RRLRASW [SEQ ID NO. 5] | capable of inhibiting the productive interaction of IL-11 and IL-11R |  |  | 
3 | RRLRASWTYPASWPCQPHFL [Peptide 1] | binds IL-11 and prevents its productive interaction with IL-11R | inhibits IL-11 induced osteoclast formation | able to reduce the inhibitory effects of 20 ng/ml exogenous IL-11 | 
4 | SILRPDPPQGLRVESVPGYP [SEQ. ID. NO. 6] | inhibit the productive interaction between IL-11 and IL-11R |  |  | 
5 | Thr Tyr Pro Ala Ser Trp Pro Cys Gln Pro His Phe Leu Leu Lys Phe Arg Leu Gin Tyr (TYPASWPCQPHFLLKFRLQY; listed as Homo sapiens) [Peptide 2, reference compound] |  | does not | unable to reduce the inhibition of nodule formation by IL-11 | 
6 | H289→Y289 mutant solubilized IL-11 receptor: soluble human IL-11 receptor mutated H289 to Y in the gp130 binding region, expressed in BHK cells (protein, left off: small tags and cut ends) SPCPQAWGPPGVQYGQPGRSVKLCCPGVTAGDPVSWFRDGEPKLLQGPDSGLGHELVLAQADSTDEGTYICQTLDGALGGTVTLQLGYPPARPVVSCQAADYENFSCTWSPSQISGLPTRYLTSYRKKTVLGADSQRRSPSTGPWPCPQDPLGAARCVVHGAEFWSQYRINVTEVNPLGASTRLLDVSLQSILRPDPPQGLRVESVPGYPRRLRASWTYPASWPCQPHFLLKFRLQYRPAQHPAWSTVEPAGLEEVITDAVAGLPYAVRVSARDFLDAGTWSTWSPEAWGTPSTGTIPKEIPAWGQLHTQPEVEPQVDSPAPPRPSLQPHPRLLDHRDSVEQVAVLA |  | capable of inhibiting IL-11-induced osteoclast formation | can reverse the effect of exogenous IL-11 | bone nodule formation relative to level without exogenous IL-11 ([4]; 10 ng/ml mutant receptor, FIG. 9): enhanced bone nodule formation relative to the level observed in the absence of exogenous IL-11
7 | soluble form of murine interleukin-11 receptor: soluble form of murine IL-11R produced by Karow et al. (protein, left off: small tags and cut ends) SPCPQAWGPPGVQYGQPGRSVKLCCPGVTAGDPVSWFRDGEPKLLQGPDSGLGHELVLAQADSTDEGTYICQTLDGALGGTVTLQLGYPPARPVVSCQAADYENFSCTWSPSQISGLPTRYLTSYRKKTVLGADSQRRSPSTGPWPCPQDPLGAARCVVHGAEFWSQYRINVTEVNPLGASTRLLDVSLQSILRPDPPQGLRVESVPGYPRRLRASWTYPASWPCQPHFLLKFRLQYRPAQHPAWSTVEPAGLEEVITDAVAGLPHAVRVSARDFLDAGTWSTWSPEAWGTPSTGTIPKEIPAWGQLHTQPEVEPQVDSPAPPRPSLQPHPRLLDHRDSVEQVAVLA |  |  |  | affinity for IL-11 ligand [5]: high affinity
8 | IL-11: cytokine interleukin-11, added exogenously to cultures (protein, UniProt P47873 22-199, looked up) Interleukin-11: PGPPAGSPRVSSDPRADLDSAVLLTRSLLADTRQLAAQMRDKFPADGDHSLDSLPTLAMSAGTLGSLQLPGVLTRLRVDLMSYLRHVQWLRRAGGPSLKTLEPELGALQARLERLLRRLQLLMSRLALPQAAPDQPVIPLGPPASAWGSIRAAHAILGGLHLTLDWAVRGLLLLKTRL |  |  |  | number of bone nodules per plate (bone formation) [6]: can inhibit bone nodule formation; also recorded: inhibits bone formation; effect of IL-11 on osteoclast formation in vitro ([3]; cocultures of murine calvaria and bone marrow cells): potent simulator of osteoclast formation; affinity for gp130 [7]: below the level of detection
